Experimental data reported in the RNAGym collection of RNA variant scans (doi:10.7554/elife.80360).

B1: Hairpin Ribozyme (parent)
chain: GUCCUCUUUCACGUGCGCGUGAAAGAGAGAAGUGAACCAGAGAAACACACGUUGUGGUAUAUUACCUGGUA

Variants of: B1
Test: self-cleavage, relative activity (ratio to wild type); higher = more cleavage; co-transcriptional

Variant | self-cleavage
A41C U55A | 0.405
G40C U52G | 0.064
G40C U52C | 0.137
G42C A59G | 0.195
A41U U55C | 0.762
A41U U55G | 0.485
A41U U55A | 0.808
G42C U55G | 0.173
G42C U55C | 0.158
G42C U55A | 0.169
A41C C46G | 0.117
A41C G51A | 1.33
A41C G51U | 1.48
A41C G51C | 1.16
G40U A41C | 0.255
G40U A41G | 0.419
A43C A44C | 0.259
A41G G56U | 0.195
G40C G51C | 0.127
G40C G51U | 0.131
G40C A61G | 0.0698
G42U U60G | 0.218
G42U U60A | 0.178
G42U U60C | 0.241

Variant | self-cleavage
A41U A71G | 1.14
A41U A71C | 1.58
G40C A41U | 0.13
A43G A47G | 0.196
A43C G69C | 0.196
A43C G69U | 0.161
A43C G69A | 0.105
A41G A47U | 0.212
A41G A47C | 0.189
A41U G51C | 1.27
A39U U70G | 0.333
A43C C46A | 0.1
A43C C46G | 0.245
G42A A47C | 0.219
A39U U53A | 0.233
A41G A43G | 0.157
G42C A47G | 0.116
A41U C50U | 0.781
G40C U67G | 0.157
A41C C48G | 0.199
G40A C66U | 0.832
G40A C66G | 0.164
A41U G54C | 0.891
G42C U53A | 0.332

Variant | self-cleavage
G40C U58A | 0.16
G40C U58C | 0.0707
G42U U67G | 0.127
G40C C48G | 0.127
A41U C48G | 0.241
A41C A64U | 0.267
G40C A59G | 0.0907
G40C A59C | 0.0991
G40A U52G | 0.212
A43G A49G | 0.0811
G42C A61G | 0.178
G42C A61U | 0.136
G42U C50U | 0.197
A41C A59U | 0.173
G42A A71C | 0.566
G42A A71U | 0.159
G42A U52G | 0.0884
G42A U52C | 0.208
G40A A45U | 0.149
A41C G54C | 0.676
G42U A49C | 0.173
G40A G69U | 0.197
A39U U60A | 0.345
A39U U60C | 0.378

Variant | self-cleavage
G40U U63G | 0.104
G40U U63C | 0.092
G42A U55G | 0.249
G42A U55C | 0.103
G42A U55A | 0.104
G40C G56A | 0.107
A41G A49G | 0.504
A41G A49U | 0.105
A41U G42U | 0.325
A43G C50U | 0.198
G40A A49G | 0.182
G40A A49U | 0.0787
A43C C48U | 0.16
A41U C65U | 1.19
A41U C65A | 0.756
A39U U67G | 0.371
A41C U62A | 0.325
A41C U62G | 0
A43C G57C | 0.204
A43C G57A | 0.137
G42A C48U | 0.0486
G42C G51C | 0.227
G40A U67C | 0.121
G40A U67A | 0.108

Variant | self-cleavage
G40A G56U | 0.0994
G40A G56C | 0.146
G42A U67C | 0.105
A41G A59C | 0.436
G42U U53A | 0.298
G42U U53C | 0.233
G42C C46A | 0.166
A43G C46A | 0.153
G42C U52G | 0.237
G40U A61G | 0.186
G40U C46G | 0.136
A41C A45G | 0.257
A41C A45U | 0.202
A41C A45C | 0.11
A43G C65A | 0.0913
G42U A71C | 0.6
A43C U63C | 0.157
G40A A64C | 0.16
G40A A64U | 0.139
G42A A45G | 0.138
A41C U58A | 1.07
G42U A44C | 0.188
G42U A44U | 0.19
A41U A47U | 0.207

Variant | self-cleavage
A41U A47G | 0.207
G40U G56U | 0.111
G40A C65A | 0.315
G40A C65U | 0.435
G42A C50U | 0.106
G42A C50G | 0.128
A41G U60C | 1.23
A41U U60G | 1.15
G40A C50A | 0.194
G40U U53G | 0.151
G40U U53C | 0.344
A41G C65A | 0.693
G40A A43U | 0.0963
G40A A43G | 0.18
G40A G54U | 0.183
G42A G69C | 0.118
G42U A61C | 0.193
A43C U58C | 0.148
A43C U58G | 0.262
G40C C46A | 0.155
G40A U70A | 0.158
G40A U70G | 0.182
G40U G68A | 0.134
G40U G68C | 0.163

Variant | self-cleavage
G40C U55A | 0.107
A39U U55A | 0.155
G40U C65G | 0.099
G40U C65U | 0.177
A41C C66G | 0.292
A41C C66U | 0.614
A41C C66A | 0.214
G40U A43U | 0.148
G40U A43G | 0.134
G42A A64C | 0.129
A41G U53C | 0.819
A41G U53A | 1.1
A43C C66G | 0.0604
G42A G57A | 0.14
G42A G57C | 0.0908
A41U C46A | 0.0476
G40C A71U | 0.09
A41U G68U | 0.423
A41U G68C | 0.262
G40C G42C | 0.107
G42A U63C | 0.113
A41C U52A | 1.17
A41C A47G | 0.0213
